The values that follow come from PMC12333492, “Co-enzyme-free, enzymatic synthesis of aldehydes from renewable resources with a new and highly efficient alkene cleaving dioxygenase” (Green Chemistry, 2025).

The target of data set [1] is T1, MapADO (Moesziomyces aphidis, UniProt W3VHW6).
T1 construct: gene PaG_05861; codon-optimized, pET-28a, His6 tag, E. coli BL21 (DE3), IMAC purified, FeCl2 supplemented
Briefly: continuous UV-Vis initial rate of vanillin formation ([…] nm). Type of data set: biochemical. Conditions: O2 co-substrate; 10 mM potassium phosphate pH 7.4, 30 °C, 2% EtOH; initial-rate value taken (endpoint HPLC fit also printed in the 2nd table, row 3).

For data set [2], the target named is T2, PAD (Heyndrickxia coagulans, UniProt A0A0C5C6Z1).
T2 construct: gene SB48_HM08orf00536; co-expressed with MapADO on one pET28 vector, E. coli BL21 (DE3) resting cells
T2 sequence (A0A0C5C6Z1 1-167): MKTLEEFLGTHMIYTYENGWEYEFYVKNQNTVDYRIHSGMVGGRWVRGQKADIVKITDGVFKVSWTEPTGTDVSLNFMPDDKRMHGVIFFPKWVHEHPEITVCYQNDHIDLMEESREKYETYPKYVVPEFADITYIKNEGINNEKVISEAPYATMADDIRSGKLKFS
The data set can be described thus: whole-cell decarboxylation to 4-vinylguaiacol, HPLC. As to conditions: co-expressed with MapADO; 200 mM phosphate pH 7.4, 30 °C. Type of data set: cell-based.

Substrate in data set [3]: C=Cc1ccc(O)c(OC)c1
Briefly: endpoint HPLC-UV. Type of data set: biochemical, Moesziomyces aphidis. Conditions: O2 co-substrate, 10 mM potassium phosphate pH 7.4, 30 °C, 2% EtOH, endpoint measurement (authors: endpoint overestimates kcat and KM). The source says:
(§1) endpoint HPLC-UV on MapADO

Substrate in data set [4]: Oc1ccc(/C=C/c2cc(O)cc(O)c2)cc1
Briefly: endpoint HPLC-UV. It counts as biochemical, Moesziomyces aphidis. Conditions: O2 co-substrate, 10 mM potassium phosphate pH 7.4, 30 °C, 2% EtOH, endpoint measurement (authors: endpoint overestimates kcat and KM).
Text: as §1

Substrate in data set [5]: COc1cc(/C=C/CO)ccc1O
Briefly: UV-Vis spectrophotometric initial rate. It counts as biochemical, Moesziomyces aphidis. Conditions: O2 co-substrate, 10 mM potassium phosphate pH 7.4, 30 °C, 2% EtOH. From the text:
UV-Vis spectrophotometric initial rate on MapADO

For `CC=Cc1ccc(O)c(OC)c1` [1b, isoeugenol], the Km in data set [1] amounted to 118 ± 13 µM.

Consider `COc1cc(/C=C/C(=O)O)ccc1O` [2a, ferulic acid], for which, in data set [2], the “whole-cell decarboxylation to 4-vinylguaiacol, HPLC” value was “The decarboxylation was effective and resulted in the rapid accumulation of 2b”.

B1: MapADO (Moesziomyces aphidis) (protein)
chain: MAPTATQEPVPVPVTSKAAPSHGYVHPTDILPSGWPTATDLSGGAQPRRFEGTIFDVMTRGTIPKELHGTFYRIMPDYAQPPTYYKGGELNAPIDGDGTVAAFRFKDGKVDYRQRFVETDRFKVERRARKSMYGLYRNPYTHHPCVRQTVESTANTNVVMHAGRFLAMKENGNAYEMDPHTLKTLGYNPFNLPSKTMTAHPKQCSVTGNLVGFGYEAKGLATKDVYYFEVDPSGKVVRDLWLEAPWCAFIHDCALTPNYLVLMLWPFEANLERMKAGGHHWAYDYTKPITWITIPRGAKSKDEVKYWHWKNGMPIHTASGFEDEQGRIIIDSSLVHGNAFPFFPPDSDEQKKKQEADGTPKAQFVRWTIDPRKDNNEQLPDPEVILDTPSEFPQIDNRFMGVEYSSAFINVFVPDRSDGNKNVFQGLNGLAHYKRKEGTTEWYYAGDNCLIQEPVFSPRSKDAPEGDGFVLAIVDRLDLNRSEVVVIDTRDFTKAVAAVQLPFAIRSGIHGQWIPGEVTPDFETKGLVDLPKEEHWAPLSQSPYDPDA
notes: codon-optimized, pET-28a, His6 tag, E. coli BL21 (DE3), IMAC purified, FeCl2 supplemented
Turning to B1, the Km in data set [3] is 220 ± 46 µM; in data set [4], 49 ± 9 µM; in data set [5] it was 445 ± 125 µM. Moreover, the kcat is 361 ± 12 s⁻¹ in data set [3], 3.2 ± 0.1 s⁻¹ in data set [4] and 90 ± 8 s⁻¹ in data set [5].

Usually Km stands for the substrate concentration at which the rate is half of its maximum. By kcat is commonly meant the number of substrate molecules converted per active site and unit of time at saturation.
